Consider 1 molecule from patent US20170319675A1 (IMMATICS BIOTECHNOLOGIES, published 2017).

The target in the experiment is T1, HLA-A*0201 (human).
T1 construct: also called peptide-receptive MHC molecules; MHC class I
The experiment is described as follows: UV-ligand exchange; anti-b2m ELISA. From the text: Candidate peptides for the vaccines according to the present invention were further tested for immunogenicity by in vitro priming assays. The individual peptide-MHC complexes required for these assays were produced by UV-ligand exchange, where a UV-sensitive peptide is cleaved upon UV-irradiation, and exchanged with the peptide of interest as analyzed. Only peptide candidates that can effectively bind and stabilize the peptide-receptive MHC molecules prevent dissociation of the MHC complexes. To determine the yield of the exchange reaction, an ELISA was performed based on the detection of the light chain (β2m) of stabilized MHC complexes.
Peptide-MHC monomers of the UV-exchange reaction were diluted 100 fold in blocking buffer. Samples were incubated for 1 h at 37° C., washed four times, incubated with 2 μg/ml HRP conjugated anti-β2m for 1 h at 37° C., washed again and detected with TMB solution that is stopped with […]. Absorption was measured at 450 nm.

On to RLLAAENFL [SAMSN1-001], for which the “Average exchange yield in %” value amounted to 47%.
